# B1: VHH 2-C10 (VHH)
# VHH: QVQLQESGGGLVQAGGSLRLSCVASGRTFSSYSMAWFRQAPGKEREFVASISWSDINGYYPDSVKGRFTISRDNAKNTVYLQMNSLKPEDTAVYYCAARLGLSNYHYHRVSDYDVWGQGTQVTVSS
# notes: also called native VHH 2-C10; source: E. coli TOP10F', culture medium, purified (Ni-NTA agarose)
# Target: T1, hemagglutinin (HA) of influenza A/H1N1, in viral protein preparations (Influenza A virus (H1N1); …, UniProt C3W5X2)
# T1 construct: source: viral protein preparations from A/H1N1
# Assay: ELISA
binder,measurement,value
B1,binding result,binds

# — publication PMC12101271 (Antibodies, 2025)
